Data on one substance can be found in publication PMC9374677.

The target of the test is MBP-TNFR1^ECD deletion mutant ΔCRD2 (human) (UniProt P19438). The test is described as follows: ITC; MicroCal PEAQ-ITC, 16 °C; […] (500–600 μM) […] (~60 μM); 20 mM Tris-HCl pH 7.5, 200 mM NaCl; […]. (In ITC the heat of successive injections is recorded.)

Consider “Staphylococcal superantigen-like protein 10 (SSL10), residues 31-227, C-terminal 6xHis (from UniProt A0A0H3K6Z9 31-227) (natural protein)”, for which the Kd (in general, the concentration at which binding is half-saturated) worked out at 30.3 µM.
